T1: FcγRIIb (human, UniProt P31994 43-217)
T1 construct: extracellular domain; also called FcgRIIb; 2b; not shown: His tag at the C terminus
T1 sequence (looked up): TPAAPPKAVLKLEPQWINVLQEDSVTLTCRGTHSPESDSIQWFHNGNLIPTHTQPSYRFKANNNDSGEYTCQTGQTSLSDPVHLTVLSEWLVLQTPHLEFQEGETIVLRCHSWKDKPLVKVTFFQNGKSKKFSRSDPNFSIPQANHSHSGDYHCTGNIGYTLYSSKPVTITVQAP

T2: FcγRIIa H (human, UniProt P12318 34-217)
T2 construct: extracellular domain; Soluble His-tagged extracellular domain expressed in FreeStyle293 cells; also called FcγRIIa type H; FcgRIIa H; not shown: His tag attached to the C terminus
T2 sequence (looked up): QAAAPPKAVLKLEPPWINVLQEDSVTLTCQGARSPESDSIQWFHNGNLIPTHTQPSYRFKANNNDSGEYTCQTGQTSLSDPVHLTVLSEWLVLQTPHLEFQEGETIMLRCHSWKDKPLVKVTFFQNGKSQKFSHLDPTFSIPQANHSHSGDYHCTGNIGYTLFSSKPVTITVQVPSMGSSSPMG

T3: FcγRIIb (human, UniProt P31994 43-217)
T3 construct: extracellular domain; Soluble His-tagged extracellular domain expressed in FreeStyle293 cells; also called FcgRIIb; 2b; not shown: His tag attached to the C terminus
T3 sequence (looked up): T1 sequence (looked up)

B1: GpH7-A5/GpH7-B3 variant L328_02A/GpL16-k0 (antibody, human IgG1, kappa)
heavy 1: not shown
heavy 2: not shown
light: DIVMTQSPLSLPVTPGEPASISCQASESLVHSNRNTYLHWYLQKPGQSPQLLIYKVSNRFSGVPDRFSGSGSGTDFTLKISRVEAEDVGVYYCSQNTHVPPTFGQGTKVEIERTVAAPSVFIFPPSDEQLKSGTASVVCLLNNFYPREAKVQWKVDNALQSGNSQESVTEQDSKDSTYSLSSTLTLSKADYEKHKVYACEVTHQGLSSPVTKSFNRGEC
notes: heterodimerized IgG1; alteration in the GpH7-B3 H chain only; also called He Ab
B2: GpH7-A5/GpH7-B3 variant N325_13S/GpL16-k0 (antibody, human IgG1, kappa)
heavy 1: not shown
heavy 2: not shown
light: B1 light
notes: as for B1
B3: GpH7-A5/GpH7-B3 variant L328_04F/GpL16-k0 (antibody, human IgG1, kappa)
heavy 1: not shown
heavy 2: not shown
light: B1 light
notes: as for B1
B4: GpH7-A5/GpH7-B3 variant L328_07I/GpL16-k0 (antibody, human IgG1, kappa)
heavy 1: not shown
heavy 2: not shown
light: B1 light
notes: as for B1
B5: GpH7-A5/GpH7-B3 variant L328_06M/GpL16-k0 (antibody, human IgG1, kappa)
heavy 1: not shown
heavy 2: not shown
light: B1 light
notes: as for B1
B6: GpH7-A5/GpH7-B3 variant L328_13S/GpL16-k0 (antibody, human IgG1, kappa)
heavy 1: not shown
heavy 2: not shown
light: B1 light
notes: as for B1
B7: GpH7-A5/GpH7-B3 variant N325_20W/GpL16-k0 (antibody, human IgG1, kappa)
heavy 1: not shown
heavy 2: not shown
light: B1 light
notes: as for B1
B8: GpH7-A5/GpH7-B3 variant P331_03V/GpL16-k0 (antibody, human IgG1, kappa)
heavy 1: not shown
heavy 2: not shown
light: B1 light
notes: as for B1
B9: GpH7-A5/GpH7-B3 variant N325_01G/GpL16-k0 (antibody, human IgG1, kappa)
heavy 1: not shown
heavy 2: not shown
light: B1 light
notes: Heterodimerized anti-glypican-3 IgG1; mutation in the GpH7-B3 H chain only; also called He Ab
B10: GpH7-A5/GpH7-B3 variant N325_02A/GpL16-k0 (antibody, human IgG1, kappa)
heavy 1: not shown
heavy 2: not shown
light: B1 light
notes: as for B9
B11: GpH7-A5/GpH7-B3 variant K326_10E/GpL16-k0 (antibody, human IgG1, kappa)
heavy 1: not shown
heavy 2: not shown
light: B1 light
notes: as for B9
B12: GpH7-A5/GpH7-B3 variant K326_08L/GpL16-k0 (antibody, human IgG1, kappa)
heavy 1: not shown
heavy 2: not shown
light: B1 light
notes: as for B9
B13: GpH7-A5/GpH7-B3 variant K326_09D/GpL16-k0 (antibody, human IgG1, kappa)
heavy 1: not shown
heavy 2: not shown
light: B1 light
notes: as for B9
B14: GpH7-A5/GpH7-B3 variant K326_14T/GpL16-k0 (antibody, human IgG1, kappa)
heavy 1: not shown
heavy 2: not shown
light: B1 light
notes: as for B9
B15: GpH7-A5/GpH7-B3 variant K334_20W/GpL16-k0 (antibody, human IgG1, kappa)
heavy 1: not shown
heavy 2: not shown
light: B1 light
notes: as for B9

target: T4, FcγRIa (human, UniProt P12314 16-292); assay: SPR (Biacore), antibody captured, FcγR as analyte; binding as % of GpH7-A5/GpH7-B3/GpL16-k0
T4 construct: extracellular domain; also called FcgRI; 1a; not shown: His tag at the C terminus
T4 sequence (P12314 16-292): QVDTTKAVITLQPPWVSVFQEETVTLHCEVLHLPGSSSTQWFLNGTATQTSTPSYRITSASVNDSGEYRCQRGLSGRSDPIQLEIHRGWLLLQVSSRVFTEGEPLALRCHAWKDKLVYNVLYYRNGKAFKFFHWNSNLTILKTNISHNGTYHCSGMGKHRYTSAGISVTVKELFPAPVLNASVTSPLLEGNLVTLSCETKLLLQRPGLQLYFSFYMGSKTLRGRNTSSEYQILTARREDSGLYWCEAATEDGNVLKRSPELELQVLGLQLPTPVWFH

He/Con_1a | Binder
98.5 % of control | B1
96.8 % of control | B2
97.9 % of control | B3
99.4 % of control | B4
98.7 % of control | B5
99 % of control | B6
93.8 % of control | B7
92 % of control | B8

target: T1, FcγRIIb; assay: as above

He/Con_2b | Binder
144 % of control | B1
177 % of control | B2
219 % of control | B3
160 % of control | B4
142 % of control | B5
149 % of control | B6
169 % of control | B7
119 % of control | B8

target: T2, FcγRIIa H; assay: SPR (Biacore), captured antibody, FcγR analyte; relative to GpH7-A5/GpH7-B3/GpL16-k0 = 100
Description: (§1) The heterodimerized antibodies He Abs in which one of the H chains was introduced with an alteration were assayed for their binding activities to each activating FcγR and inhibitory FcγR according to the method described in Example 4. […] The activating FcγRs in FIGS. 26, 27, 28, and 29 are FcγRIa, FcγRIIa (R), FcγRIIa (H), and FcγRIIIa, respectively.
(§2) Analysis of interaction between objective antibody and the FcγR was carried out using Biacore T100 (GE Healthcare). HBS-EP+ (GE Healthcare) was used as the running buffer, and the measurement temperature was set to 25° C. Chips produced by immobilizing the antigen peptide by the amine coupling method to a Series S Sencor Chip CM5 (GE Healthcare), or alternatively, chips produced by allowing preliminarily biotinylated antigen peptides to interact with and immobilize onto a Series S Sensor Chip SA (certified) (GE Healthcare) were used. Antibodies of interest were captured onto an antigen peptide-immobilized chip, and allowed to interact to each FcγR diluted with running buffer. To regenerate and repeatedly use the chip, the antibodies captured on the chip were washed off by reacting 10 mM glycine-HCl, pH 1.5.

He/Con_2aH | Binder
56.8 relative (control = 100) | B9
47.6 relative (control = 100) | B10
102 relative (control = 100) | B11
92.7 relative (control = 100) | B12
110 relative (control = 100) | B13
114 relative (control = 100) | B14
97.6 relative (control = 100) | B15

target: T3, FcγRIIb; assay: as above
Description: as §1, §2

He/Con_2b | Binder
101 relative (control = 100) | B9
64.4 relative (control = 100) | B10
200 relative (control = 100) | B11
177 relative (control = 100) | B12
193 relative (control = 100) | B13
150 relative (control = 100) | B14
104 relative (control = 100) | B15

target: T4, FcγRIa; assay: SPR (Biacore); He/Con_1a (FcγRIa) divided by He/Con_2b (FcγRIIb)

Ia/IIb He_1a/2b [ratio] | Binder
0.68 | B1
0.55 | B2
0.45 | B3
0.62 | B4
0.7 | B5
0.66 | B6
0.56 | B7
0.78 | B8

target: T4, FcγRIa; assay: SPR (Biacore), antibody captured, FcγR as analyte; binding as % of GpH7-A5/GpH7-B3/GpL16-k0; remark: another data set of the same source

He/Con_1a | Binder
98.5 % of control | B1
96.8 % of control | B2
97.9 % of control | B3
99.4 % of control | B4
98.7 % of control | B5
99 % of control | B6
93.8 % of control | B7
92 % of control | B8

target: T1, FcγRIIb; assay: as above; remark: another data set of the same source

He/Con_2b | Binder
144 % of control | B1
177 % of control | B2
219 % of control | B3
160 % of control | B4
142 % of control | B5
149 % of control | B6
169 % of control | B7
119 % of control | B8

target: T2, FcγRIIa H; assay: SPR (Biacore); He/Con_2aH divided by He/Con_2b (FcγRIIb) of the same antibody
Description: as §1, §2

He_2aH/2b [ratio] | Binder
0.56 | B9
0.74 | B10
0.51 | B11
0.52 | B12
0.57 | B13
0.77 | B14

Source: patent publication US20180155451A1 (published 2018)
